± gives the uncertainty stated by the source.
B1: Zinc finger MYM-type protein 6, residues 427 to 504; numbered along this chain, O95789 (parent)
chain: KLKCQHCNHLFATKPELLFYKGKMFLFCGKNCSDEYKKKNKVVAMCDYCKLQKIIKETVRFSGVDKPFCSEVCKFLSA

Variants of: B1
Experiment: abundance fitness (aPCA) (normalised: wild type 0, dead -1); higher = more abundant; growth selection in yeast, the domain comes from the species named
Details: Homo sapiens

Question: With KLKCQHCNHLFATKPELLFYKGKMFLFCGKNCSDEYKKKNKVVAMCDYCKLQKIIKETVRFSGVDKPFLSEVCKFLSA as the variant, how does the abundance fitness read?
Answer: -0.954 ± 0.24

Question: With KLKCQHCNHLFAQKPELLFYKGKMFLFCGKNCSDEYKKKNKVVAMCDYCKLQKIIKETVRFSGVDKPFCSEVCKFLSA as the variant, how does the abundance fitness read?
Answer: -0.093 ± 0.048

Question: For KLKCQHCNHLFATKPELLFYKGKMFLFCGKNCSDEYKKKNKVVAMCDYCKLQKIIKETVRFSGVDKPFCSVVCKFLSA, which abundance fitness is on record?
Answer: -0.386 ± 0.11

Question: With KLKCQHCNHLFATKPELLFYKGKMFLFCGKNCSDEYKKKNKVVAMCDYCKLQKIIKETVRFSGVDKPFCSAVCKFLSA as the variant, how does the abundance fitness read?
Answer: -0.188 ± 0.092

Question: With KLKCKHCNHLFATKPELLFYKGKMFLFCGKNCSDEYKKKNKVVAMCDYCKLQKIIKETVRFSGVDKPFCSEVCKFLSA as the variant, how does the abundance fitness read?
Answer: -0.194 ± 0.27

Question: Which abundance fitness does the source give for KLKCGHCNHLFATKPELLFYKGKMFLFCGKNCSDEYKKKNKVVAMCDYCKLQKIIKETVRFSGVDKPFCSEVCKFLSA here?
Answer: -0.041 ± 0.027

Question: For KLKCQHCNHLFATKPELLFYKGKMFLFCGKNCSDEYKKKNKVVAKCDYCKLQKIIKETVRFSGVDKPFCSEVCKFLSA, which abundance fitness is on record?
Answer: -0.237 ± 0.18

Question: With KLKCQHCNHLFATKPELLFYKGKAFLFCGKNCSDEYKKKNKVVAMCDYCKLQKIIKETVRFSGVDKPFCSEVCKFLSA as the variant, how does the abundance fitness read?
Answer: -0.083 ± 0.039

Question: For KLKCQHCNHLFATKPELLFYKGKMFLFGGKNCSDEYKKKNKVVAMCDYCKLQKIIKETVRFSGVDKPFCSEVCKFLSA, which abundance fitness is on record?
Answer: -0.866 ± 0.04

Question: For KLKCQHCNHLFDTKPELLFYKGKMFLFCGKNCSDEYKKKNKVVAMCDYCKLQKIIKETVRFSGVDKPFCSEVCKFLSA, which abundance fitness is on record?
Answer: -0.047 ± 0.033

Question: For KLKCQHCNHLFATKPELLFYKGKMFLFCGKNCSDCYKKKNKVVAMCDYCKLQKIIKETVRFSGVDKPFCSEVCKFLSA, which abundance fitness is on record?
Answer: -0.402 ± 0.46

Question: With KLKCQHCNHLFATKPELLFYKGKMFLFCGKNCSDQYKKKNKVVAMCDYCKLQKIIKETVRFSGVDKPFCSEVCKFLSA as the variant, how does the abundance fitness read?
Answer: -0.082 ± 0.06

Question: With KLKCQHCNHLFATKPELLFYKGKMFLFCGKNCSDYYKKKNKVVAMCDYCKLQKIIKETVRFSGVDKPFCSEVCKFLSA as the variant, how does the abundance fitness read?
Answer: -0.108 ± 0.098

Question: With KLKCQHCNHLFATKPEELFYKGKMFLFCGKNCSDEYKKKNKVVAMCDYCKLQKIIKETVRFSGVDKPFCSEVCKFLSA as the variant, how does the abundance fitness read?
Answer: 0.166 ± 0.037

Question: With KLKCQHCNHLFATKPEPLFYKGKMFLFCGKNCSDEYKKKNKVVAMCDYCKLQKIIKETVRFSGVDKPFCSEVCKFLSA as the variant, how does the abundance fitness read?
Answer: 0.024 ± 0.038

Question: For KLKCQHCNHLRATKPELLFYKGKMFLFCGKNCSDEYKKKNKVVAMCDYCKLQKIIKETVRFSGVDKPFCSEVCKFLSA, which abundance fitness is on record?
Answer: -0.198 ± 0.031

Question: Which abundance fitness does the source give for KLKCQHCNHLFATKPELLFYKGKMFLFCGKNCSDEYKKKNKVVAMCDYCKLQKIIKETVRFSGVDKPFCSEVCKFLSN here?
Answer: -0.301 ± 0.14

Question: For KLKKQHCNHLFATKPELLFYKGKMFLFCGKNCSDEYKKKNKVVAMCDYCKLQKIIKETVRFSGVDKPFCSEVCKFLSA, which abundance fitness is on record?
Answer: -0.687 ± 0.098

Question: Which abundance fitness does the source give for KLKCQHCNHLFATKPELLFYKGKMFLFCGKNCSDEYKKKNKVVAMCDHCKLQKIIKETVRFSGVDKPFCSEVCKFLSA here?
Answer: 0.537 ± 0.18

Question: With KLKCQHCNHLFATKPELLFYKGKMFLFCGKNCSDEYKKKNKVVAMCDYCKLQKIIKETVRFSGVDKPFCSEVCKCLSA as the variant, how does the abundance fitness read?
Answer: 0.677 ± 0.09

Question: Which abundance fitness does the source give for KLKCQHCNHLFATKPELLFYKGKMFLFCGKNCSDEYKKKNKVVAMCDYCKLQKIIKETVRFRGVDKPFCSEVCKFLSA here?
Answer: -0.01 ± 0.096

Question: With KLKCQHCNHLFATKPELLFYKGKMFLFCGKNCSDEYKKKNKVVAMCDYCKLQKIIKETVRFSGVCKPFCSEVCKFLSA as the variant, how does the abundance fitness read?
Answer: -0.284 ± 0.4

Question: Which abundance fitness does the source give for KLKCQHCNHLFATKPELLFYKGKMFLFCGKNCSDEYKKKNKVVAMCDYCKLQKIIKETVRFSGVDKPFCSEVCVFLSA here?
Answer: -0.674 ± 0.14

Question: For KLKCQHCNHLFATKPELLFYKGKMFLFCGKNCQDEYKKKNKVVAMCDYCKLQKIIKETVRFSGVDKPFCSEVCKFLSA, which abundance fitness is on record?
Answer: 0.017 ± 0.053

Question: For KLKCQHCNHLFATKPELLFYKGKMFLFCGKNCVDEYKKKNKVVAMCDYCKLQKIIKETVRFSGVDKPFCSEVCKFLSA, which abundance fitness is on record?
Answer: -0.054 ± 0.03

Question: With KLKCQHCNHLFATKPELLFYKGKMFLFCGKNCSAEYKKKNKVVAMCDYCKLQKIIKETVRFSGVDKPFCSEVCKFLSA as the variant, how does the abundance fitness read?
Answer: -0.037 ± 0.029

Question: For KLKCQHCNHLFATKPELLFYKGKMFLFCGKNCSDEYKKKNKVVAMCDYCKLQKIIKETVRFSGVDKPFCQEVCKFLSA, which abundance fitness is on record?
Answer: -0.578 ± 0.17

Question: For KLKCQHCNHLFATKPELLFYKGKMFMFCGKNCSDEYKKKNKVVAMCDYCKLQKIIKETVRFSGVDKPFCSEVCKFLSA, which abundance fitness is on record?
Answer: -0.015 ± 0.056

Question: Which abundance fitness does the source give for KLKCQHCNHLFATKPELLFYKGKMFGFCGKNCSDEYKKKNKVVAMCDYCKLQKIIKETVRFSGVDKPFCSEVCKFLSA here?
Answer: 0.125 ± 0.029

Question: Which abundance fitness does the source give for KLKCQHCNHLFATKPELLFYKGKMFLFCGKNCSDEYCKKNKVVAMCDYCKLQKIIKETVRFSGVDKPFCSEVCKFLSA here?
Answer: -0.074 ± 0.084

Question: For KLKCQHCNHLFATKPELLFYKGKMFLFCGKNCSDEYKKKNKVVAMCDYCKLQKNIKETVRFSGVDKPFCSEVCKFLSA, which abundance fitness is on record?
Answer: 0.189 ± 0.39

Question: For KLKCQHCNHLFATKPELLFYKGKMFLFCGKNCSDEYKKKNKVVAMCDYCALQKIIKETVRFSGVDKPFCSEVCKFLSA, which abundance fitness is on record?
Answer: -0.786 ± 0.16

Question: With KLKCQHCNHLFATKPELLFYKGKMFLFCGKNCSDEYKKKNKVVAMCDYCCLQKIIKETVRFSGVDKPFCSEVCKFLSA as the variant, how does the abundance fitness read?
Answer: -0.805 ± 0.19

Question: For KLKCQHCNHLFATKPELLFYKGKMFLFCGKNCSDEYKKKNKVVAMCDYCKLQKIIKETVRFSGVDKPFCSEVCKFLYA, which abundance fitness is on record?
Answer: -0.09 ± 0.28

Question: Which abundance fitness does the source give for KLKCQHCNHLFATKPELLFYKGKMFLFCGKNCSDEYKKSNKVVAMCDYCKLQKIIKETVRFSGVDKPFCSEVCKFLSA here?
Answer: 0.003 ± 0.043
